Laboratory results published in patent US20020077295A1.
Where no end group is shown, it is not given here.

Target: Nogo binding sites (axonal Nogo receptors) on chick dorsal root ganglion neurons (chick)
Assay: competition with 10 nM AP-Nogo binding to chick E12 DRG neurons (FIG. 3b)

Ki: 150 nM
Binder: RIYKGVIQAIQKSDEGHPFRAYLESEVAISEELVQKYSNS (not fully specified) [Pep2-41 (2-41 fragment of Nogo)]
